The results in this text go back to ChEMBL document CHEMBL4680222, “Sensitive fluorogenic substrates for sirtuin deacylase inhibitor discovery” (Eur J Med Chem, 2020).

Compound in data set [1]: CCCCCCCCCCCCCC(=O)NCCCC[C@H](NC(=O)OCc1ccccc1)C(=O)Nc1ccc2c(C)cc(=O)oc2c1
The data set is described as follows: (§1) Substrate activity at human N-terminal His-tagged SIRT2 (56 to 356 residues) expressed in Escherichia coli assessed as ratio of Kcat to Km measured after 1 hr in presence of NAD+ and trypsin by Michaelis-Menten kinetic model based fluorescence assay.

Compound in data set [2]: CCCCCCCCCC(=O)NCCCC[C@H](NC(=O)[C@H](CC(=O)O)NC(=O)[C@@H](NC(=O)[C@H](CCC(=O)O)NC(C)=O)[C@@H](C)O)C(=O)Nc1ccc2c(C)cc(=O)oc2c1
Described as §1.

Compound in data set [3]: CC[C@H](C)[C@H](NC(=O)[C@H](CC(C)C)NC(=O)[C@H](CCCNC(=N)N)NC(C)=O)C(=O)N[C@@H](CCCCNC(C)=O)C(=O)Nc1ccc2c(C)cc(=O)oc2c1
The data set is described as §1.

Compound in data set [4]: CCCCCCCCCC(=O)NCCCC[C@H](NC(=O)[C@@H](NC(=O)[C@H](CO)NC(=O)[C@H](CO)NC(C)=O)[C@@H](C)CC)C(=O)Nc1ccc2c(C)cc(=O)oc2c1
The description is as §1.

Compound in data set [5]: CC(=O)NCCCC[C@H](NC(=O)OCc1ccccc1)C(=O)Nc1ccc2c(C)cc(=O)oc2c1
The data set is described as §1.

Compound in data set [6]: CC(=O)NCCCC[C@H](NC(=O)[C@H](CC(C)C)NC(=O)[C@H](CCCCN)NC(=O)[C@H](Cc1ccc(O)cc1)NC(C)=O)C(=O)Nc1ccc2c(C)cc(=O)oc2c1
Described as §1.

Compound in data set [7]: CCCCCCCCCCCCCC(=O)NCCCC[C@H](NC(=O)OCc1ccccc1)C(=O)Nc1ccc2c(C)cc(=O)oc2c1
The data set is described as follows: (§2) Substrate activity at human N-terminal His-tagged SIRT2 (56 to 356 residues) expressed in Escherichia coli assessed as Km measured after 1 hr in presence of NAD+ and trypsin by Michaelis-Menten kinetic model based fluorescence assay.

Compound in data set [8]: CCCCCCCCCC(=O)NCCCC[C@H](NC(=O)[C@H](CC(=O)O)NC(=O)[C@@H](NC(=O)[C@H](CCC(=O)O)NC(C)=O)[C@@H](C)O)C(=O)Nc1ccc2c(C)cc(=O)oc2c1
Described as §2.

Compound in data set [9]: CC[C@H](C)[C@H](NC(=O)[C@H](CC(C)C)NC(=O)[C@H](CCCNC(=N)N)NC(C)=O)C(=O)N[C@@H](CCCCNC(C)=O)C(=O)Nc1ccc2c(C)cc(=O)oc2c1
The data set is described as §2.

Compound in data set [10]: CCCCCCCCCC(=O)NCCCC[C@H](NC(=O)[C@@H](NC(=O)[C@H](CO)NC(=O)[C@H](CO)NC(C)=O)[C@@H](C)CC)C(=O)Nc1ccc2c(C)cc(=O)oc2c1
Described as §2.

Compound in data set [11]: CC(=O)NCCCC[C@H](NC(=O)OCc1ccccc1)C(=O)Nc1ccc2c(C)cc(=O)oc2c1
The description is as §2.

Compound in data set [12]: CC(=O)NCCCC[C@H](NC(=O)[C@H](CC(C)C)NC(=O)[C@H](CCCCN)NC(=O)[C@H](Cc1ccc(O)cc1)NC(C)=O)C(=O)Nc1ccc2c(C)cc(=O)oc2c1
The description is as §2.

Compound in data set [13]: CCCCCCCCCCCCCC(=O)NCCCC[C@H](NC(=O)OCc1ccccc1)C(=O)Nc1ccc2c(C)cc(=O)oc2c1
The data set can be described thus: (§3) Substrate activity at human N-terminal His-tagged SIRT2 (56 to 356 residues) expressed in Escherichia coli assessed as Kcat measured after 1 hr in presence of NAD+ and trypsin by Michaelis-Menten kinetic model based fluorescence assay.

Compound in data set [14]: CCCCCCCCCC(=O)NCCCC[C@H](NC(=O)[C@H](CC(=O)O)NC(=O)[C@@H](NC(=O)[C@H](CCC(=O)O)NC(C)=O)[C@@H](C)O)C(=O)Nc1ccc2c(C)cc(=O)oc2c1
Described as §3.

Compound in data set [15]: CC[C@H](C)[C@H](NC(=O)[C@H](CC(C)C)NC(=O)[C@H](CCCNC(=N)N)NC(C)=O)C(=O)N[C@@H](CCCCNC(C)=O)C(=O)Nc1ccc2c(C)cc(=O)oc2c1
The data set is described as §3.

Compound in data set [16]: CCCCCCCCCC(=O)NCCCC[C@H](NC(=O)[C@@H](NC(=O)[C@H](CO)NC(=O)[C@H](CO)NC(C)=O)[C@@H](C)CC)C(=O)Nc1ccc2c(C)cc(=O)oc2c1
The data set is described as §3.

Compound in data set [17]: CC(=O)NCCCC[C@H](NC(=O)OCc1ccccc1)C(=O)Nc1ccc2c(C)cc(=O)oc2c1
The data set is described as §3.

Compound in data set [18]: CC(=O)NCCCC[C@H](NC(=O)[C@H](CC(C)C)NC(=O)[C@H](CCCCN)NC(=O)[C@H](Cc1ccc(O)cc1)NC(C)=O)C(=O)Nc1ccc2c(C)cc(=O)oc2c1
The description is as §3.

Compound in data set [19]: CCCCCCCCCCCCCC(=O)NCCCC[C@H](NC(=O)OCc1ccccc1)C(=O)Nc1ccc2c(C)cc(=O)oc2c1
The data set can be described thus: (§4) Substrate activity at human N-terminal His-tagged SIRT2 (56 to 356 residues) expressed in Escherichia coli assessed as Vmax measured after 1 hr in presence of NAD+ and trypsin by Michaelis-Menten kinetic model based fluorescence assay.

Compound in data set [20]: CCCCCCCCCC(=O)NCCCC[C@H](NC(=O)[C@H](CC(=O)O)NC(=O)[C@@H](NC(=O)[C@H](CCC(=O)O)NC(C)=O)[C@@H](C)O)C(=O)Nc1ccc2c(C)cc(=O)oc2c1
The description is as §4.

Compound in data set [21]: CC[C@H](C)[C@H](NC(=O)[C@H](CC(C)C)NC(=O)[C@H](CCCNC(=N)N)NC(C)=O)C(=O)N[C@@H](CCCCNC(C)=O)C(=O)Nc1ccc2c(C)cc(=O)oc2c1
Described as §4.

Compound in data set [22]: CCCCCCCCCC(=O)NCCCC[C@H](NC(=O)[C@@H](NC(=O)[C@H](CO)NC(=O)[C@H](CO)NC(C)=O)[C@@H](C)CC)C(=O)Nc1ccc2c(C)cc(=O)oc2c1
Described as §4.

Compound in data set [23]: CC(=O)NCCCC[C@H](NC(=O)OCc1ccccc1)C(=O)Nc1ccc2c(C)cc(=O)oc2c1
The description is as §4.

Compound in data set [24]: CC(=O)NCCCC[C@H](NC(=O)[C@H](CC(C)C)NC(=O)[C@H](CCCCN)NC(=O)[C@H](Cc1ccc(O)cc1)NC(C)=O)C(=O)Nc1ccc2c(C)cc(=O)oc2c1
The data set is described as §4.

Compound in data set [25]: CC[C@H](C)[C@H](NC(=O)[C@H](CC(C)C)NC(=O)[C@H](CCCNC(=N)N)NC(C)=O)C(=O)N[C@@H](CCCCNC(C)=O)C(=O)Nc1ccc2c(C)cc(=O)oc2c1
The data set can be described thus: (§5) Substrate activity at human N-terminal His-tagged SIRT3 (122 to 391 residues) expressed in Escherichia coli assessed as ratio of Kcat to Km measured after 1 hr in presence of NAD+ and trypsin by Michaelis-Menten kinetic model based fluorescence assay.

Compound in data set [26]: CC(=O)NCCCC[C@H](NC(=O)[C@H](CC(C)C)NC(=O)[C@H](CCCCN)NC(=O)[C@H](Cc1ccc(O)cc1)NC(C)=O)C(=O)Nc1ccc2c(C)cc(=O)oc2c1
The data set is described as §5.

Compound in data set [27]: CC[C@H](C)[C@H](NC(=O)[C@H](CC(C)C)NC(=O)[C@H](CCCNC(=N)N)NC(C)=O)C(=O)N[C@@H](CCCCNC(C)=O)C(=O)Nc1ccc2c(C)cc(=O)oc2c1
The data set can be described thus: (§6) Substrate activity at human N-terminal His-tagged SIRT3 (122 to 391 residues) expressed in Escherichia coli assessed as Km measured after 1 hr in presence of NAD+ and trypsin by Michaelis-Menten kinetic model based fluorescence assay.

Compound in data set [28]: CC(=O)NCCCC[C@H](NC(=O)[C@H](CC(C)C)NC(=O)[C@H](CCCCN)NC(=O)[C@H](Cc1ccc(O)cc1)NC(C)=O)C(=O)Nc1ccc2c(C)cc(=O)oc2c1
The description is as §6.

Compound in data set [29]: CC[C@H](C)[C@H](NC(=O)[C@H](CC(C)C)NC(=O)[C@H](CCCNC(=N)N)NC(C)=O)C(=O)N[C@@H](CCCCNC(C)=O)C(=O)Nc1ccc2c(C)cc(=O)oc2c1
The data set is described as follows: (§7) Substrate activity at human N-terminal His-tagged SIRT3 (122 to 391 residues) expressed in Escherichia coli assessed as Vmax measured after 1 hr in presence of NAD+ and trypsin by Michaelis-Menten kinetic model based fluorescence assay.

Compound in data set [30]: CC(=O)NCCCC[C@H](NC(=O)[C@H](CC(C)C)NC(=O)[C@H](CCCCN)NC(=O)[C@H](Cc1ccc(O)cc1)NC(C)=O)C(=O)Nc1ccc2c(C)cc(=O)oc2c1
The data set is described as §7.

Compound in data set [31]: CC[C@H](C)[C@H](NC(=O)[C@H](CC(C)C)NC(=O)[C@H](CCCNC(=N)N)NC(C)=O)C(=O)N[C@@H](CCCCNC(C)=O)C(=O)Nc1ccc2c(C)cc(=O)oc2c1
The data set is described as follows: (§8) Substrate activity at human N-terminal His-tagged SIRT3 (122 to 391 residues) expressed in Escherichia coli assessed as Kcat measured after 1 hr in presence of NAD+ and trypsin by Michaelis-Menten kinetic model based fluorescence assay.

Compound in data set [32]: CC(=O)NCCCC[C@H](NC(=O)[C@H](CC(C)C)NC(=O)[C@H](CCCCN)NC(=O)[C@H](Cc1ccc(O)cc1)NC(C)=O)C(=O)Nc1ccc2c(C)cc(=O)oc2c1
Described as §8.

B1: NAD-dependent protein deacetylase sirtuin-2 (Homo sapiens), Q8IXJ6 (protein)
chain: MAEPDPSHPLETQAGKVQEAQDSDSDSEGGAAGGEADMDFLRNLFSQTLSLGSQKERLLDELTLEGVARYMQSERCRRVICLVGAGISTSAGIPDFRSPSTGLYDNLEKYHLPYPEAIFEISYFKKHPEPFFALAKELYPGQFKPTICHYFMRLLKDKGLLLRCYTQNIDTLERIAGLEQEDLVEAHGTFYTSHCVSASCRHEYPLSWMKEKIFSEVTPKCEDCQSLVKPDIVFFGESLPARFFSCMQSDFLKVDLLLVMGTSLQVQPFASLISKAPLSTPRLLINKEKAGQSDPFLGMIMGLGGGMDFDSKKAYRDVAWLGECDQGCLALAELLGWKKELEDLVRREHASIDAQSGAGVPNPSTSASPKKSPPPAKDEARTTEREKPQ
What is called kcat/Km is the second-order rate constant that governs catalysis at low substrate concentration. What is called Km is the concentration of substrate that gives half-maximal velocity. For orientation: kcat means the number of substrate molecules converted per active site and unit of time at saturation. One may read the Vmax as the top rate of the reaction or transport when substrate is in excess. As to B1, the kcat/Km in data set [1] is 3.2 M⁻¹ s⁻¹; in [2] it was 1250 M⁻¹ s⁻¹; in [3], 289 M⁻¹ s⁻¹; in data set [4], 3530 M⁻¹ s⁻¹; in data set [5], 3.5 M⁻¹ s⁻¹; in [6] it was 129 M⁻¹ s⁻¹. The Km in data set [7] was found to be 1.7 µM; in data set [8], 16.5 µM; in data set [9], 41.6 µM; in data set [10] it was 1.2 µM; in data set [11], 274 µM; in data set [12], 106 µM. Also, the kcat in data set [13] was 0.054 10^-3/s; in data set [14], 20.6 10^-3/s; in [15] it was 12 10^-3/s; in [16], 4.25 10^-3/s; in data set [17], 0.98 10^-3/s; in data set [18], 13.6 10^-3/s. Besides, the Vmax in data set [19] amounted to 1.63 nM/min; in [20], 61.9 nM/min; in data set [21], 36.1 nM/min; in data set [22], 25.5 nM/min; in data set [23], 26.3 nM/min; in data set [24], 81.9 nM/min.

B2: NAD-dependent protein deacetylase sirtuin-3, mitochondrial (Homo sapiens), Q9NTG7 (protein)
chain: MAFWGWRAAAALRLWGRVVERVEAGGGVGPFQACGCRLVLGGRDDVSAGLRGSHGARGEPLDPARPLQRPPRPEVPRAFRRQPRAAAPSFFFSSIKGGRRSISFSVGASSVVGSGGSSDKGKLSLQDVAELIRARACQRVVVMVGAGISTPSGIPDFRSPGSGLYSNLQQYDLPYPEAIFELPFFFHNPKPFFTLAKELYPGNYKPNVTHYFLRLLHDKGLLLRLYTQNIDGLERVSGIPASKLVEAHGTFASATCTVCQRPFPGEDIRADVMADRVPRCPVCTGVVKPDIVFFGEPLPQRFLLHVVDFPMADLLLILGTSLEVEPFASLTEAVRSSVPRLLINRDLVGPLAWHPRSRDVAQLGDVVHGVESLVELLGWTEEMRDLVQRETGKLDGPDK
Consider B2, for which the kcat/Km was 850 M⁻¹ s⁻¹ in data set [25] and 26.1 M⁻¹ s⁻¹ in [26]. Further, the Km is 6.52 µM in [27] and 63.4 µM in [28]. Besides, the Vmax in data set [29] was found to be 33.5 nM/min; in data set [30], 14.6 nM/min. Also, the values for the kcat in data set [31] and in data set [32] were 5.58 10^-3/s and 2.44 10^-3/s, respectively.
